Test results from article PMC9738063, “Ethylene Response Factor MaERF012 Modulates Fruit Ripening by Regulating Chlorophyll Degradation and Softening in Banana”.

B1: MaPL8 probe (dsDNA)
DNA 1: ATATCTGTGTGCTCTTGCGAGGCGGCTGGACTTTCCTGCACGCAAT
DNA 2: ATTGCGTGCAGGAAAGTCCAGCCGCCTCGCAAGAGCACACAGATAT
B2: MaAMY3 probe (dsDNA)
DNA 1: CGGACTCACGCCACACCACAGCCGCCCCTGACGCAATTAGCGTCGA
DNA 2: TCGACGCTAATTGCGTCAGGGGCGGCTGTGGTGTGGCGTGAGTCCG
B3: MaEXP-A8 probe (dsDNA)
DNA 1: GTTGGTTCATAAGGTGCTCCGGCGGCATGTGCTGCAGACACGAAGT
DNA 2: ACTTCGTGTCTGCAGCACATGCCGCCGGAGCACCTTATGAACCAAC
B4: MaSGR1 probe (dsDNA)
DNA 1: ATCATATTTCTGAATTAAGGTACTGGCGGCACATCGATATGGTATC
DNA 2: GATACCATATCGATGTGCCGCCAGTACCTTAATTCAGAAATATGAT
B5: MaGWD1 probe (dsDNA)
DNA 1: CTAATCACATGATGGTGTGTGGCCGCCATCATTCTCTCCCAAGCAACC
DNA 2: GGTTGCTTGGGAGAGAATGATGGCGGCCACACACCATCATGTGATTAG
B6: MaXYL23-like probe (dsDNA)
DNA 1: GGCAATCAGTCGGAGGAGGAGCCGCCCGATTTGGTGCACTATCATC
DNA 2: GATGATAGTGCACCAAATCGGGCGGCTCCTCCTCCGACTGATTGCC

biological target: GST-MaERF012 (Musa acuminata 'Fenjiao' banana, UniProt A0A804KA32 1-188); assay: EMSA; LightShift Chemiluminescent EMSA Kit; buffer, salt, pH and temperature not stated; conditions: protein: recombinant; tags: N-terminal GST (pGEX-4T-1); label: biotin 3' end; blunt
Sequence (A0A804KA32 entry or part of it): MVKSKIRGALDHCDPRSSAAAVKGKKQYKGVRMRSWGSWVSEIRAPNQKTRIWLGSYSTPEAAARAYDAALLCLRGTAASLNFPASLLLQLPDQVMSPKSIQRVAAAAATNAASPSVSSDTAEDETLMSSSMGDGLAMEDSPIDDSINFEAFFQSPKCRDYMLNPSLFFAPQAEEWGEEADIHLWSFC

Binding result, binds:
B1
B2
B3
B4
B5
B6
